According to PMC7806473:
Where “and” joins values, the source holds several entries; their conditions need not be identical. Equal values may be shown once.

Tests used:
[1] = target: T1, bovine alpha-lactalbumin (α-LA), calcium-depleted (bovine), P00711; experiment: MALDI-TOF-MS; 1:1 v/v mixture of 0.1% aqueous trifluoroacetic acid MALDI matrix and 50 mM sinapinic acid ionization matrix; details: remark: other sources report otherwise
T1 chain: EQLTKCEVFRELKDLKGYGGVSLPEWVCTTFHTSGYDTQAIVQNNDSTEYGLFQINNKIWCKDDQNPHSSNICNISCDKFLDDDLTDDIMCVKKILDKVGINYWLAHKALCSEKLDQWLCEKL

[2] = target: T1, bovine alpha-lactalbumin (α-LA), …; experiment: AUC; sedimentation velocity, 50,000 rpm, 20 °C, absorbance at 280 nm, c(s) continuous distribution analysis with SEDFIT; details: remark: other sources report otherwise

B1: bovine alpha-lactalbumin (α-LA), calcium-depleted, P00711 20-142 (natural protein)
chain: EQLTKCEVFRELKDLKGYGGVSLPEWVCTTFHTSGYDTQAIVQNNDSTEYGLFQINNKIWCKDDQNPHSSNICNISCDKFLDDDLTDDIMCVKKILDKVGINYWLAHKALCSEKLDQWLCEKL
With B1 the stoichiometry N [1] was 2 and 3 and 4 and the stoichiometry N [2] was 2 and 3.
